T1: immobilized recombinant human B7-H4 (Homo sapiens, UniProt Q7Z7D3)
T1 sequence (Q7Z7D3 25-282): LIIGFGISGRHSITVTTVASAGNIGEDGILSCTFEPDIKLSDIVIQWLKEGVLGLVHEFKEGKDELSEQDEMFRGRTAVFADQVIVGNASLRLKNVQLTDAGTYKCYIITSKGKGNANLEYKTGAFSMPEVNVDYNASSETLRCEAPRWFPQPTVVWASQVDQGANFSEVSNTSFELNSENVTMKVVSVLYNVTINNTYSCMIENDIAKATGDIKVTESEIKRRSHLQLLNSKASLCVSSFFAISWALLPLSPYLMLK


What was measured:
SKBR-3 cells = test: Caspase 3/7 activity (IncuCyte); format: cell-based, human
Experimental: SKBR-3 cells were treated with E02-GL-SG3249, SG3199 and Olaparib (control) and monitored for caspase 3/7 activity (e.g. apoptosis) by IncuCyte.

HCC1569 cells = test: Western blot DNA damage response; format: cell-based; settings: 100 ng/ml ADC, 100 pM SG3199
Experimental: Following treatment of HCC1569 cells with E02-GL-SG3249, and SG3199 as a control (at 100 ng/ml and 100 pM, respectively), lysate was prepared and subjected to western blot analysis with antibodies to pATR, ATR, pChk1, Chk1, pRPA32, RPA32, pATM, ATM (all involved in ATR signalling), pChk2, ChK2, pKAP1, KAP1 (all involved in ATM signalling), pDNA-PK, DNA-PK, pH2AX, H2AX, pBRCA1, BRCA1 (all involved in DNA double strand break), pFANCD2 and GAPDH (load control). Negative controls were PBS treatment alone.

[1] = tested on: SKBR3 cell line (target cell); test: ADCC with primary human NK cells; format: cell-based; settings: 1 μg/mL; NK cells from healthy donors
From the text: When IgG antibodies bind cell surface antigens via their Fab domains, the Fc portion of the antibodies can engage with FcγRIIIa on natural killer cells. The interaction of the Fc domain with FcγRIIIa induces cross-linking of the FcγRs, which triggers the release of cytotoxic granules containing perforin and granzymes, leading to the death of the target cell, a process called antibody-dependent cellular cytotoxicity (ADCC). The potential of antibody E02-INT and E02-GL-SG3932 to initiate ADCC activity was evaluated utilizing isolated primary human NK cells and the human breast cancer SKBR3 cell line as the target cell.
Next, human breast cancer SK-BR-3 cells were co-cultured with NK cells isolated from six healthy donors in the presence of 1 μg/mL E02-GL-SG3932, antibody intermediate E02-INT, isotype-matched control antibody NIP228, and the isotype-matched control ADC NIP228-SG3932 (FIG. 37). ADCC activity was evaluated by Incycte® Annexin V Dye binding of extracellular surface exposure of phosphatidyl serine on apoptotic cells, yielding a bright and stable red fluorescent signal. The fold-change was based on maximum cell death of non-drug treated NK/SK-BR-3 co-cultured cells. Maximum cell death was calculated by dividing the average red objects in experimental wells by the average maximum cell death in Staurosporine treated SK-BR-3 cells.

SKBR3 = test: E02-GL MESF on cell line; format: cell-based, human
[2] = tested on: hB7-H4 expressing HT29 cells; test: Flow cytometry binding; format: cell-based, human; settings: 31, 156 and 78 ng/ml; compared with 1D11
Experimental: (§1) Cells were detached from tissue culture flasks by accutase (Gibco, Paisley, UK), pelleted by centrifugation, and resuspended in ice cold DPBS (Gibco, Paisley, UK). Viable cells were counted by trypan blue exclusion using a haemocytometer. Cell densities were adjusted to 5×10^6 cells/mL in DPBS. 100 μL of the cell suspension (5×10^5 cells) was added to 96-well V-bottomed plates and placed on ice. Then, the cells were incubated with Live/Dead fixable violet stain (ThermoFisher Scientific, Loughborough, UK) for 20 minutes on ice. Following a wash with flow cytometry buffer (eBiosciences, Hatfield, UK), the cells were incubated on ice for 30 minutes in 100 μL flow cytometry buffer alone (unstained control cells) or supplemented with AF647-labelled anti-B7H4 antibodies (e.g. E02-GL or 1D11) or isotype R347 at a concentration ranging from 10 µg/ml to 78 ng/ml. […] FlowJo cytometry analysis software (Treestar, Ashland, OR, USA) was used to quantify antibody binding to cells as follows. Live, single cells were gated based on forwards scatter, side scatter, and Live/Dead violet fluorescence intensity and the AF647 geometric mean fluorescence intensity (MFI) was determined. […]

SK-BR-3 cells = test: Flow cytometry binding; format: cell-based, human; settings: 31, 156 and 78 ng/ml; compared with 1D11
Experimental: as §1

HEK293 JI parental = test: E02-GL MESF on cell line; format: cell-based; settings: B7-H4 negative
[3] = tested on: live cells (B7-H4 on membrane); test: Internalisation kinetics in live cells (AF647 label); format: cell-based; settings: AF647 conjugate; co-visualisation with Lamp1-AF488
Experimental: E02-GL conjugated to fluorescence marker AF647 was used to treat live cells. At 0 mins following treatment, clusters of fluorescence were noted on the cell membranes (indicative of binding to B7-H4 present on the membrane).

[4] = target: T1, immobilized recombinant human B7-H4; test: DELFIA-ELISA; format: binding
Experimental: To assess whether conjugation of the topoisomerase 1 linker-warhead affected binding properties of the E02-INT antibody, the binding affinity of E02-INT and E02-GL-SG3932 were measured using a DELFIA-ELISA method and an SPR method. […] The kinetic rate constants (kon and koff) and equilibrium dissociation constants (KD) of E02-INT and E02-GL-SG3932 for human B7-H4 antigen was also determined by SPR, using an antibody capture method.

Molecule	caspase 3/7 activity (SKBR-3 cells)	DNA damage response signalling (ATR, ATM, double strand break markers) (HCC1569 cells)	ADCC activity beyond untreated co-cultured cells [1]	E02-GL MESF (SKBR3)	binding to B7-H4 expressed on cancer cells [2]	binding to B7-H4 expressed on cancer cells (SK-BR-3 cells)	E02-GL MESF (HEK293 JI parental)	internalisation of bound antibody [3]	EC50 [4]
E02-GL-SG3249: clone E02-GL (Maia heavy chain backbone) conjugated to the PBD cytotoxin SG3249 (conjugate) heavy: QVQLQQWGAGLLKPSETLSLACTVYGGSFSGYYWNWIRQPPGKGLEWIGEINHSGSTSYNPSLKSRVTISVDTSKNQFSLKLSSVTAADTAVYYCARVLYNWNVDSWGQGTLVTVSSASTKGPSVFPLAPSSKSTSGGTAALGCLVKDYFPEPVTVSWNSGALTSGVHTFPAVLQSSGLYSLSSVVTVPSSSLGTQTYICNVNHKPSNTKVDKRVEPKSCDKTHTCPPCPAPELLGGPSCVFLFPPKPKDTLMISRTPEVTCVVVDVSHEDPEVKFNWYVDGVEVHNAKTKPREEQYNSTYRVVSVLTVLHQDWLNGKEYKCKVSNKALPAPIEKTISKAKGQPREPQVYTLPPSREEMTKNQVSLTCLVKGFYPSDIAVEWESNGQPENNYKTTPPVLDSDGSFFLYSKLTVDKSRWQQGNVFSCSVMHEALHNHYTQKSLSLSPGK light: DIQMTQSPSSLSASVGDRVTITCRASQDIRNDVGWYQQKPGKAPKRLIYAASRLQSGVPSRFSGSGSGTEFTLTISSLQPEDFATYYCLQHNSYPRTFGQGTKVEIKRTVAAPSVFIFPPSDEQLKSGTASVVCLLNNFYPREAKVQWKVDNALQSGNSQESVTEQDSKDSTYSLSSTLTLSKADYEKHKVYACEVTHQGLSSPVTKSFNRGEC	dose dependent increase	leads to double strand DNA breaks	–	–	–	–	–	–	–
E02-GL: germlined ZY0EQD-E02, VH SEQ ID NO: 45, VL SEQ ID NO: 34; antibody intermediate of E02-GL-SG3932 (antibody, V domains shown) VH: QVQLQQWGAGLLKPSETLSLACTVYGGSFSGYYWNWIRQPPGKGLEWIGEINHSGSTSYNPSLKSRVTISVDTSKNQFSLKLSSVTAADTAVYYCARVLYNWNVDSWGQGTLVTVSS VL: DIQMTQSPSSLSASVGDRVTITCRASQDIRNDVGWYQQKPGKAPKRLIYAASRLQSGVPSRFSGSGSGTEFTLTISSLQPEDFATYYCLQHNSYPRTFGQGTKVEIK	–	–	significant increase in ADCC activity	78,343 MESF	superior binding	superior binding	3,266 MESF	internalised by endocytosis	1.98 nM

Reference: patent publication US20240239894A1, “THERAPEUTIC BINDING MOLECULES” (MedImmune Limited, priority 2020, published 2024)
